# Data reported in IntAct's records for PubMed 35512704.
# B1: Speckle-type POZ protein (Homo sapiens), O43791 (parent)
# chain: MSRVPSPPPPAEMSSGPVAESWCYTQIKVVKFSYMWTINNFSFCREEMGEVIKSSTFSSGANDKLKWCLRVNPKGLDEESKDYLSLYLLLVSCPKSEVRAKFKFSILNAKGEETKAMESQRAYRFVQGKDWGFKKFIRRDFLLDEANGLLPDDKLTLFCEVSVVQDSVNISGQNTMNMVKVPECRLADELGGLWENSRFTDCCLCVAGQEFQAHKAILAARSPVFSAMFEHEMEESKKNRVEINDVEPEVFKEMMCFIYTGKAPNLDKMADDLLAAADKYALERLKVMCEDALCSNLSVENAAEILILADLHSADQLKTQAVDFINYHASDVLETSGWKSMVVSHPHLVAEAYRSLASAQCPFLGPPRKRLKQS
# Variants of: B1
# Conditions: with e2f5_human E2F5, Q15329
row,Variant,effect of a mutation on the interaction
1,F133L,with no effect

# Variants of: B1
# Conditions: with e2f6_human E2F6, O75461
row,Variant,effect of a mutation on the interaction
1,F133L,with no effect

# Variants of: B1
# Conditions: with e2f8_human E2F8, A0AVK6
row,Variant,effect of a mutation on the interaction
1,F133L,with no effect

# Variants of: B1
# Conditions: with if4e_human EIF4E
row,Variant,effect of a mutation on the interaction
1,F133L,with no effect

# Variants of: B1
# Conditions: with epha7_human EPHA7, Q15375
row,Variant,effect of a mutation on the interaction
1,F133L,with no effect

# Variants of: B1
# Conditions: with ephb1_human EPHB1, P54762
row,Variant,effect of a mutation on the interaction
1,F133L,with no effect

# Variants of: B1
# Conditions: with erbb3_human ERBB3, P21860
row,Variant,effect of a mutation on the interaction
1,F133L,with no effect

# Variants of: B1
# Conditions: with erbb4_human ERBB4, Q15303
# Chain of erbb4_human ERBB4, Q15303 (Q15303 whole entry): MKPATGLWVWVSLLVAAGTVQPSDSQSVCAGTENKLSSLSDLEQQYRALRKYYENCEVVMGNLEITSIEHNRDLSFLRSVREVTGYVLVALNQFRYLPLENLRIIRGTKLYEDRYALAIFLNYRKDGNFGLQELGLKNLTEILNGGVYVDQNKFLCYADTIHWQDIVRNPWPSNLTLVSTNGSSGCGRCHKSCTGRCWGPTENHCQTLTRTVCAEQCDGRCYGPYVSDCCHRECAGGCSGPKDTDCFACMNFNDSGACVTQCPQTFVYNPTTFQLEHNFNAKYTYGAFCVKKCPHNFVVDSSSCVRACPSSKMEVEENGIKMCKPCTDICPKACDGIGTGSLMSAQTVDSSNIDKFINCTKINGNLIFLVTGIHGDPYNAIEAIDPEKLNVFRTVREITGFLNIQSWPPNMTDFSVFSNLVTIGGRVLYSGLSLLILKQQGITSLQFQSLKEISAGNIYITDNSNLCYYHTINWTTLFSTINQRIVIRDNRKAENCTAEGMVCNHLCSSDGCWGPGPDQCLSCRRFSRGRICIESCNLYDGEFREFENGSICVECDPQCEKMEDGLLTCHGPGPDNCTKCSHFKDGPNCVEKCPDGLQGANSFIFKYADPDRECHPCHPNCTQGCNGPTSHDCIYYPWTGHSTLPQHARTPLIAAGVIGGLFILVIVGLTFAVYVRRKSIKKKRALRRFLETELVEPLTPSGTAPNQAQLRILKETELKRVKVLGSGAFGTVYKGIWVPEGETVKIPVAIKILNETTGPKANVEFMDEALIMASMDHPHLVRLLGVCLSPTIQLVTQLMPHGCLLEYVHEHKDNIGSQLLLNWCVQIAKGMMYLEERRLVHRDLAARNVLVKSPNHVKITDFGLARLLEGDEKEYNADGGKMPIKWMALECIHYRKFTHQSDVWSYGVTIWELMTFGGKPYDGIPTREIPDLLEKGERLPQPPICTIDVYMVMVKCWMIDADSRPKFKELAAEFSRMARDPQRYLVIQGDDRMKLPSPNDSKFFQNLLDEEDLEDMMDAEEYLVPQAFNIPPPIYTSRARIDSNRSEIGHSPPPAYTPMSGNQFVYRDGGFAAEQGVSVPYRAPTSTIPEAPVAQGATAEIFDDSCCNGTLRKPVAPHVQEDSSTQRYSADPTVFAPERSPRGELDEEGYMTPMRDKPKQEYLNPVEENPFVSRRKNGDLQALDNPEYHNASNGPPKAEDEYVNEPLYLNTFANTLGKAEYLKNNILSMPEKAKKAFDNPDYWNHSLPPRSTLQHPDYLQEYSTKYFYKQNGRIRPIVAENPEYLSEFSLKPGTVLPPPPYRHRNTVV
row,Variant,effect of a mutation on the interaction
1,F133L,with no effect

# Variants of: B1
# Conditions: with esr1_human ESR1, P03372
row,Variant,effect of a mutation on the interaction
1,F133L,with no effect

# Variants of: B1
# Conditions: with etv1_human ETV1, P50549
row,Variant,effect of a mutation on the interaction
1,F133L,with no effect

# Variants of: B1
# Conditions: with ezh1_human EZH1, Q92800
row,Variant,effect of a mutation on the interaction
1,F133L,with no effect

# Variants of: B1
# Conditions: with ezh2_human EZH2, Q15910
row,Variant,effect of a mutation on the interaction
1,F133L,with no effect

# Variants of: B1
# Conditions: with facd2_human FANCD2, Q9BXW9
row,Variant,effect of a mutation on the interaction
1,F133L,with no effect

# Variants of: B1
# Conditions: with fgf19_human FGF19, O95750
row,Variant,effect of a mutation on the interaction
1,F133L,with no effect

# Variants of: B1
# Conditions: with fgfp1_human FGFBP1, Q14512
row,Variant,effect of a mutation on the interaction
1,F133L,with no effect

# Variants of: B1
# Conditions: with fgfr4_human FGFR4, P22455
row,Variant,effect of a mutation on the interaction
1,F133L,with no effect

# Variants of: B1
# Conditions: with fumh_human FH
row,Variant,effect of a mutation on the interaction
1,F133L,with no effect

# Variants of: B1
# Conditions: with fzr1_human FZR1, Q9UM11
row,Variant,effect of a mutation on the interaction
1,F133L,with no effect

# Variants of: B1
# Conditions: with gbra6_human GABRA6, Q16445
# Chain of gbra6_human GABRA6, Q16445 (Q16445 whole entry): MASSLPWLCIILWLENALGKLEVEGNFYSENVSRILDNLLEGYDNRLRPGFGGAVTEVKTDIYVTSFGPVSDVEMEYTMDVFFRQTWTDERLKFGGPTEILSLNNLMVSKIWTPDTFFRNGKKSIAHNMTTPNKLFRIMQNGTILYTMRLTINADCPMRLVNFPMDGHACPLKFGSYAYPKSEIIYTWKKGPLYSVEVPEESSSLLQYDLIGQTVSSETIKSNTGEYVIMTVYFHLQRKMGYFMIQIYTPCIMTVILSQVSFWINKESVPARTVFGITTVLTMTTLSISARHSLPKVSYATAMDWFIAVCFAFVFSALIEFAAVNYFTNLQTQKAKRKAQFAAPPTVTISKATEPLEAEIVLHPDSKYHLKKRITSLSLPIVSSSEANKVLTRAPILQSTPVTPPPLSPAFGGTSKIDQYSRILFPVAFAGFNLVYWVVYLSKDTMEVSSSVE
row,Variant,effect of a mutation on the interaction
1,F133L,with no effect

# Variants of: B1
# Conditions: with gata1_human GATA1, P15976
row,Variant,effect of a mutation on the interaction
1,F133L,with no effect

# Variants of: B1
# Conditions: with p66b_human GATAD2B
row,Variant,effect of a mutation on the interaction
1,F133L,with no effect

# Variants of: B1
# Conditions: with gna11_human GNA11, P29992
row,Variant,effect of a mutation on the interaction
1,F133L,with no effect

# Variants of: B1
# Conditions: with gna13_human GNA13, Q14344
row,Variant,effect of a mutation on the interaction
1,F133L,with no effect

# Variants of: B1
# Conditions: with gnaq_human GNAQ
row,Variant,effect of a mutation on the interaction
1,F133L,with no effect

# Variants of: B1
# Conditions: with grm1_human GRM1, Q13255
# Chain of grm1_human GRM1, Q13255 (Q13255 whole entry, looked up): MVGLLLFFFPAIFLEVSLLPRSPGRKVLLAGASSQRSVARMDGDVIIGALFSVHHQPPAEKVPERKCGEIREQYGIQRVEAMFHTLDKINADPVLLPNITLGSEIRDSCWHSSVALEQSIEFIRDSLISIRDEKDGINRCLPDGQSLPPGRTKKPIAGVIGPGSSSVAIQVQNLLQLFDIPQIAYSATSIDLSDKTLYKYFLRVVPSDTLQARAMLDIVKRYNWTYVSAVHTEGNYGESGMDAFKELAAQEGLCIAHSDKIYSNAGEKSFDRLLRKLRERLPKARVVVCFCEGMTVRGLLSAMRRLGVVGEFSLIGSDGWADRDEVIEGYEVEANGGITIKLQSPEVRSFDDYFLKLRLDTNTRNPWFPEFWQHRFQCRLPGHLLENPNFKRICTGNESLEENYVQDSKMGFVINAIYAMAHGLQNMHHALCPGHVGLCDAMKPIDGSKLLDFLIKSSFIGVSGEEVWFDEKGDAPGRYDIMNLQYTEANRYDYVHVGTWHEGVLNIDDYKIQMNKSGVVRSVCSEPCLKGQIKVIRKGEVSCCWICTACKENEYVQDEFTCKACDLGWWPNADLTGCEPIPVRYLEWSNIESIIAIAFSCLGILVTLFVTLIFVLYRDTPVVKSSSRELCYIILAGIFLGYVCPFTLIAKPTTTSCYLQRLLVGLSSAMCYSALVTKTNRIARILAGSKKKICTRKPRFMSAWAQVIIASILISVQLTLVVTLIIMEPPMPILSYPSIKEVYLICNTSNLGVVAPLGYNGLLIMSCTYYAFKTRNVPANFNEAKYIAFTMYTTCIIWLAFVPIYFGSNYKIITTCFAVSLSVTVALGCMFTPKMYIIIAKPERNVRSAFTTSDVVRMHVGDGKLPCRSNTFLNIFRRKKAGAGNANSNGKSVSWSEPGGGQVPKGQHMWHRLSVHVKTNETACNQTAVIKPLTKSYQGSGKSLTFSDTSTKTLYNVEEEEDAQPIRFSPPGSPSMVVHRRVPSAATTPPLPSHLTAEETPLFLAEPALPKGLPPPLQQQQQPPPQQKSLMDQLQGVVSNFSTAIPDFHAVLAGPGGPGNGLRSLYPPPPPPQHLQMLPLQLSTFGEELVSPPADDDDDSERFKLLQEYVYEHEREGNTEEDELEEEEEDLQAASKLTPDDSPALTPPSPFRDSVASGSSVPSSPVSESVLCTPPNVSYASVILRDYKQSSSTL
row,Variant,effect of a mutation on the interaction
1,F133L,with no effect

# Variants of: B1
# Conditions: with grm3_human GRM3, Q14832
# Chain of grm3_human GRM3, Q14832 (Q14832 whole entry, looked up): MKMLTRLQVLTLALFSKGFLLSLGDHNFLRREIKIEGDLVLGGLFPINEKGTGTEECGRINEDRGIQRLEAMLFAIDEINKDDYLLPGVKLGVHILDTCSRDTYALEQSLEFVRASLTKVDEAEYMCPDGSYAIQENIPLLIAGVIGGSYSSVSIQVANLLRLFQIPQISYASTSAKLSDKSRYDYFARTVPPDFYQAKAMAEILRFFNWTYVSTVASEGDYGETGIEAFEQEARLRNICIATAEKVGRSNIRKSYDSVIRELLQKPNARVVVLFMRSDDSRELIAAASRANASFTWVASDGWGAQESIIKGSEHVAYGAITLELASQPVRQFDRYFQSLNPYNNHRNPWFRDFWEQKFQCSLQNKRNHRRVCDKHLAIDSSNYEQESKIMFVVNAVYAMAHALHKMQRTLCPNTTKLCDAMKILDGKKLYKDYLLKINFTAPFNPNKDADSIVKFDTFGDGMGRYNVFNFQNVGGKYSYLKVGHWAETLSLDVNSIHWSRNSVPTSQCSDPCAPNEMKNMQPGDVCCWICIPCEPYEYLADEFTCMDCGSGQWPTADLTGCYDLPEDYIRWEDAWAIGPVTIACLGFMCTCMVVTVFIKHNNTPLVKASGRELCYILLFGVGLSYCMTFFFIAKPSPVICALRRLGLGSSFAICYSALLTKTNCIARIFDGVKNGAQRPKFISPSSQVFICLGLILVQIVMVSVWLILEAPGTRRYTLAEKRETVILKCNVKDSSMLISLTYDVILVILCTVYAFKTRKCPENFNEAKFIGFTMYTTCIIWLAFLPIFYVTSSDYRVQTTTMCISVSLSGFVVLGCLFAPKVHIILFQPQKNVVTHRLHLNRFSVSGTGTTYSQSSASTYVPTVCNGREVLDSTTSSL
row,Variant,effect of a mutation on the interaction
1,F133L,with no effect

# Variants of: B1
# Conditions: with gsk3b_human GSK3B
row,Variant,effect of a mutation on the interaction
1,F133L,with no effect

# Variants of: B1
# Conditions: with gtpb4_human GTPBP4, Q9BZE4
row,Variant,effect of a mutation on the interaction
1,F133L,with no effect

# Variants of: B1
# Conditions: with h33_human H3-3A
row,Variant,effect of a mutation on the interaction
1,F133L,with no effect

# Variants of: B1
# Conditions: with hdac1_human HDAC1, Q13547
# Chain of hdac1_human HDAC1, Q13547 (Q13547 whole entry): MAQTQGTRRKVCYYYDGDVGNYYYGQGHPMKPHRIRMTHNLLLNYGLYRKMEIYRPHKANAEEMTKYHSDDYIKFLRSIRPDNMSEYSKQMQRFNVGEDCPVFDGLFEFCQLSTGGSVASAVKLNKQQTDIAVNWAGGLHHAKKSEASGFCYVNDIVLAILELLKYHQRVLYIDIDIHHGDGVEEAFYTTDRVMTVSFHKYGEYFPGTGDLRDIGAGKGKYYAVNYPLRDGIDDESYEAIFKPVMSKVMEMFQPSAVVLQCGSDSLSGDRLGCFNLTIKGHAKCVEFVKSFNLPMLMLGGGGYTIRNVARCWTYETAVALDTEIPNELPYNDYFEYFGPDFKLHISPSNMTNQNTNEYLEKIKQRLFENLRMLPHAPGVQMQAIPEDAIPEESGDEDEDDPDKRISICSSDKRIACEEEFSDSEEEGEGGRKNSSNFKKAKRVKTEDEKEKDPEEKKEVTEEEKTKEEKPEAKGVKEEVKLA
row,Variant,effect of a mutation on the interaction
1,F133L,with no effect

# Variants of: B1
# Conditions: with hdac3_human HDAC3, O15379
row,Variant,effect of a mutation on the interaction
1,F133L,with no effect

# Variants of: B1
# Conditions: with hgf_human HGF
row,Variant,effect of a mutation on the interaction
1,F133L,with no effect

# Variants of: B1
# Conditions: with h31_human H3C1, P68431
row,Variant,effect of a mutation on the interaction
1,F133L,with no effect

# Variants of: B1
# Conditions: with hlab_human HLA-B
row,Variant,effect of a mutation on the interaction
1,F133L,with no effect

# Variants of: B1
# Conditions: with hnf1a_human HNF1A
row,Variant,effect of a mutation on the interaction
1,F133L,with no effect

# Variants of: B1
# Conditions: with igf1r_human IGF1R
row,Variant,effect of a mutation on the interaction
1,F133L,with no effect

# Variants of: B1
# Conditions: with il7ra_human IL7R
row,Variant,effect of a mutation on the interaction
1,F133L,with no effect

# Variants of: B1
# Conditions: with int12_human INTS12, Q96CB8
row,Variant,effect of a mutation on the interaction
1,F133L,with no effect

# Variants of: B1
# Conditions: with ist1_human IST1, P53990
# Chain of ist1_human IST1, P53990 (P53990 whole entry): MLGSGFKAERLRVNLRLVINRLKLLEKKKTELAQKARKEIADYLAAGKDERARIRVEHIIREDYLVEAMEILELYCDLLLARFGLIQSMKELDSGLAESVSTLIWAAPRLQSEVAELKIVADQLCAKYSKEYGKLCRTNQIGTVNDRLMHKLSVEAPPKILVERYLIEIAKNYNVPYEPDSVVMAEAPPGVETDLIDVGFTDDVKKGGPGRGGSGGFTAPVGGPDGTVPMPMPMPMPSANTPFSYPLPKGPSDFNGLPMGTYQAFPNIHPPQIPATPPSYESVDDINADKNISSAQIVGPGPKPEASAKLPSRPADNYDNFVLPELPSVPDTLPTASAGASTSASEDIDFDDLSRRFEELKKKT
row,Variant,effect of a mutation on the interaction
1,F133L,with no effect

# Variants of: B1
# Conditions: with jak3_human JAK3, P52333
row,Variant,effect of a mutation on the interaction
1,F133L,with no effect

# Variants of: B1
# Conditions: with kat2a_human KAT2A
row,Variant,effect of a mutation on the interaction
1,F133L,with no effect

# Variants of: B1
# Conditions: with kdm5a_human KDM5A
row,Variant,effect of a mutation on the interaction
1,F133L,with no effect

# Variants of: B1
# Conditions: with kdm5c_human KDM5C
row,Variant,effect of a mutation on the interaction
1,F133L,with no effect

# Variants of: B1
# Conditions: with kdm6a_human KDM6A
row,Variant,effect of a mutation on the interaction
1,F133L,with no effect

# Variants of: B1
# Conditions: with vgfr2_human KDR
row,Variant,effect of a mutation on the interaction
1,F133L,with no effect

# Variants of: B1
# Conditions: with lims1_human LIMS1, P48059
# Chain of lims1_human LIMS1, P48059 (P48059 whole entry): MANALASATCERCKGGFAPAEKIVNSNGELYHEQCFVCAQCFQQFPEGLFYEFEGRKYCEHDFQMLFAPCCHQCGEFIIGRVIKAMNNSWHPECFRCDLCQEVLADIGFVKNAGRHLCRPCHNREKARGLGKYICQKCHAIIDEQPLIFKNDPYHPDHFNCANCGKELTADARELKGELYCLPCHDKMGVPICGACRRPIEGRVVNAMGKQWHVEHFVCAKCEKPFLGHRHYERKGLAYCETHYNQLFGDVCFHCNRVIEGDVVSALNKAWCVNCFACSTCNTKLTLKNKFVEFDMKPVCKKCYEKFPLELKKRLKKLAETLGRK
row,Variant,effect of a mutation on the interaction
1,F133L,with no effect
